Source: article PMC10300128

Target: human angiotensin-converting enzyme 2 (residues 19–615), mouse IgG2a Fc fusion (human) (UniProt Q9BYF1)
Assay: BLI

Sequence of UniProt Q9BYF1 (Q9BYF1 19-615): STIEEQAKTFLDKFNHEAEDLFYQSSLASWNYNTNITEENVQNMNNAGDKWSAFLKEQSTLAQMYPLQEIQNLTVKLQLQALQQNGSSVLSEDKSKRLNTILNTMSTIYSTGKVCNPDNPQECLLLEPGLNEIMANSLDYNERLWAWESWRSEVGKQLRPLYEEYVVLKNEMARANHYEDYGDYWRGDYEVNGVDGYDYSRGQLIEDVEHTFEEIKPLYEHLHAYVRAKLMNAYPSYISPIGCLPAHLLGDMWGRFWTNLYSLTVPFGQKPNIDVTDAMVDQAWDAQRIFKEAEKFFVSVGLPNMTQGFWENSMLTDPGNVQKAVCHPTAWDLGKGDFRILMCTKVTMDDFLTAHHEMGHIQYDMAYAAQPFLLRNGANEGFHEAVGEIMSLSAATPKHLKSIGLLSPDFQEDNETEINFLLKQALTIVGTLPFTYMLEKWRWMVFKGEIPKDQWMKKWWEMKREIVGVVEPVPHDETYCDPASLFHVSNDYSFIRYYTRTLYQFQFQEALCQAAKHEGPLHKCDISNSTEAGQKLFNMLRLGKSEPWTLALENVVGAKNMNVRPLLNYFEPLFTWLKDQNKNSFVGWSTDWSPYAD

RhGB07 spike trimer (natural protein)
Kd: 253 nM
